Holding throughout (experiment): cell-based or functional assay
Assay [1] has as its target IL-18 receptors on HEK-Blue IL-18 reporter cells (UniProt Q13478).
Assay [2] addresses human IL-18 binding protein (human) (UniProt O95998).
In assay [3] the target is interleukin 18 binding protein (IL-18BP) (UniProt O95998).
The target in assay [4] is IL-18 receptors on HEK-Blue IL-18 reporter cells (UniProt Q13478). The source holds these as a separate data set.
The target of assay [5] is human IL-18 binding protein (human) (UniProt O95998). The source holds these as a separate data set.
Chain of human IL-18 binding protein (human) (O95998 31-194 limits assumed): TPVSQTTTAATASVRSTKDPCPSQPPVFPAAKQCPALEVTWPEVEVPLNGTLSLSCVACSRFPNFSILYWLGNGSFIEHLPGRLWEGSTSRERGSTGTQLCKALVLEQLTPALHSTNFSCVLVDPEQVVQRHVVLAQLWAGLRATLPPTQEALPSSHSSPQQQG
In assay [6] the target is T1, IL-18 receptor (IL-18Rα and IL-18Rβ) (UniProt Q13478).
T1 sequence (looked up) 1: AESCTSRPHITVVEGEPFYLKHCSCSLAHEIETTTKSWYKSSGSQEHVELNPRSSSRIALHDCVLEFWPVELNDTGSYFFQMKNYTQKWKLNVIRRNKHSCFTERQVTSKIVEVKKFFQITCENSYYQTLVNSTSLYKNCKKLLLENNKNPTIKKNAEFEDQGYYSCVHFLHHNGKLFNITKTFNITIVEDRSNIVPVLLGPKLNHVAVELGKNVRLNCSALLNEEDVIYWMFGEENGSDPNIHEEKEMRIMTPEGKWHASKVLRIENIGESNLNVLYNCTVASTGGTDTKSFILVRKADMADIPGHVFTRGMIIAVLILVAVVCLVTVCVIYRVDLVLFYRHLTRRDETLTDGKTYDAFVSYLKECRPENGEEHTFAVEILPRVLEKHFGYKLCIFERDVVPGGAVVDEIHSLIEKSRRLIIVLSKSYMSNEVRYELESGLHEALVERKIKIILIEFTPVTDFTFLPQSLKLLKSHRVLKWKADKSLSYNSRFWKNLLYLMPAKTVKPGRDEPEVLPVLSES
T1 sequence (looked up) 2: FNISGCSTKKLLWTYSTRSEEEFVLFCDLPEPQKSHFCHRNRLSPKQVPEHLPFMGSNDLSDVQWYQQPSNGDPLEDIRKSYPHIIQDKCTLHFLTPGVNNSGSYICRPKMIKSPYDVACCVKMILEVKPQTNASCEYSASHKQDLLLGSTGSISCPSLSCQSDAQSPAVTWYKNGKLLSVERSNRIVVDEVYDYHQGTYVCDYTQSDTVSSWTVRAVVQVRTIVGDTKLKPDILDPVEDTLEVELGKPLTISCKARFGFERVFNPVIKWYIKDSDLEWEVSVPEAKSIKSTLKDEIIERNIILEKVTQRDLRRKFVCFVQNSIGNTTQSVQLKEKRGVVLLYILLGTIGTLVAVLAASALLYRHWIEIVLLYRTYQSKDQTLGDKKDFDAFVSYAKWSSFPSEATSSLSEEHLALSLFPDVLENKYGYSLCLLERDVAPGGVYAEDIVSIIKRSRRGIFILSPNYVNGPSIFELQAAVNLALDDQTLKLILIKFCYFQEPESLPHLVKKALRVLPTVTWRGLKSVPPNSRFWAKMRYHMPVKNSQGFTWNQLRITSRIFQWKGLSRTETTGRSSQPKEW

The target of assay [7] is IL-18 binding protein (IL-18BP) (UniProt O95998).
Chain of IL-18 binding protein (IL-18BP) (O95998 31-194 limits assumed): as the sequence (O95998 31-194 limits assumed) above

Several values for one entry are separate records, joined by “and”; a condition that tells them apart may be missing. Equal entries are not always repeated. Where two headings read alike, the source gives them in different places. A value given as a limit tells only on which side of the number the result lay.

Chain of WT-monoFc (wild-type human IL-18 linked to monoFc) (Fc fusion) (chain): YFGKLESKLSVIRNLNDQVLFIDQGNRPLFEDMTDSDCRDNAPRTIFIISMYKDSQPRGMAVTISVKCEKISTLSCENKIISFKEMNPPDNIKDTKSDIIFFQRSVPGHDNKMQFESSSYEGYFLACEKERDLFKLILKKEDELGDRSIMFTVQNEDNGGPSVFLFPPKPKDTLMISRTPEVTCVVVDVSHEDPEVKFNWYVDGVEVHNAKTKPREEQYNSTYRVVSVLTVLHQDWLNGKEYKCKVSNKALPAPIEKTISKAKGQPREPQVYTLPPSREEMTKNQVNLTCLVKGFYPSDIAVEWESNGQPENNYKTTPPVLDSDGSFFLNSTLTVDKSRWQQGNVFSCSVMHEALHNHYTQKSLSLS
Chain of WT-hIL-18-monoFc (Fc fusion) (chain): as above
Chain of WT-monoFc (Fc fusion) (chain): as above
Chain of interleukin 18 binding protein (IL-18BP) (O95998 31-194 limits assumed): as the sequence (O95998 31-194 limits assumed) above

Substance G3T/E6K/K53A-monoFc (Fc fusion) showed an HEK-blue EC50 (pM) - IL-18BP in assay [1] of 0.06 pM. Also, in assay [2], the HEK-blue EC50 (pM) + 300 nM IL-18BP turned out to be 2.81 pM.

G3T/M60K-HSA-his-avi gave an HEK-blue EC50 (pM) - IL-18BP in assay [1] of 0.36 pM. Besides, the HEK-blue EC50 (pM) + 300 nM IL-18BP in assay [2] came to 4.25 pM.

With G3T/M60K-monoFc (Fc fusion), the HEK-blue EC50 (pM) - IL-18BP in assay [1] worked out at 0.21 pM. The HEK-blue EC50 (pM) + 300 nM IL-18BP in assay [2] worked out at 1.78 pM.

On to G3V/M60K-HSA-his-avi, for which the HEK-blue EC50 (pM) - IL-18BP in assay [1] is 0.19 pM. Moreover, the HEK-blue EC50 (pM) + 300 nM IL-18BP in assay [2] amounted to 3.83 pM.

In turn, G3V/M60K-monoFc (Fc fusion) displayed an HEK-blue EC50 (pM) - IL-18BP in assay [1] of 0.15 pM. The HEK-blue EC50 (pM) + 300 nM IL-18BP in assay [2] was determined as 1.57 pM.

In assay [1], “IL-18 variant S36E, D40A, N41M, K53T, S55Y, P107S (ligand)” returned an HEK-Blue activity, No BP, DF-10000 of 0.24; an HEK-Blue activity, No BP, DF-100,000 of 0.11; an HEK-Blue activity, No BP, DF-1,000,000 of 0.09. In assay [3], the HEK-Blue activity, +100 nM BP, DF-10000 was found to be 0.25; the HEK-Blue activity, +100 nM BP, DF-100,000 is 0.11; the HEK-Blue activity, +100 nM BP, DF-1,000,000 is 0.09; the Ratio (-BP/+BP), DF-10000 is 0.97. In assay [3], the Ratio (-BP/+BP), DF-100,000 amounted to 1.02 and the Ratio (-BP/+BP), DF-1,000,000 stood at 1.01.

WT-hIL-18-monoFc (Fc fusion) displayed an HEK-blue EC50 (pM) - BP in assay [4] of 0.495 pM. Moreover, in assay [5], the HEK-blue EC50 (pM) + 1000 nM BP came out at 99.8 pM. In addition, in assay [1], the HEK-Blue activity, No BP, DF-10000 turned out to be 2.24; the HEK-Blue activity, No BP, DF-100,000 turned out to be 2.08; the HEK-Blue activity, No BP, DF-1,000,000 came out at 1.75; the HEK-blue EC50 (pM) - BP was 0.458 pM. The HEK-blue EC50 (pM) - IL-18BP in assay [1] turned out to be 0.29 pM. In assay [2], the HEK-Blue activity, +100 nM BP, DF-10000 was found to be 0.92; the HEK-Blue activity, +100 nM BP, DF-100,000 is 0.29; the HEK-Blue activity, +100 nM BP, DF-1,000,000 turned out to be 0.24; the HEK-blue EC50 (pM) + 300 nM BP turned out to be 221 pM. In addition, in assay [2], the HEK-blue EC50 (pM) + 300 nM IL-18BP is above 500 pM; the Ratio (-BP/+BP), DF-10000 came to 2.45; the Ratio (-BP/+BP), DF-100,000 was 7.16; the Ratio (-BP/+BP), DF-1,000,000 amounted to 7.32.

Substance WT-monoFc (Fc fusion) gave an HEK-blue EC50 (pM) - BP in assay [1] of 0.52 pM. Also, in assay [3], the HEK-blue EC50 (pM) + 300 nM BP was above 500 pM and the Ratio amounted to 947.

For “WT-monoFc (wild-type human IL-18 linked to monoFc) (Fc fusion)”, in assay [6], the EC50 (pM) - BP, HEK-blue re-screening is 0.51 pM and 0.43 pM and 0.6 pM; the EC50 (pM), PBMC IFN gamma assay is 96.8 pM. In assay [3], the EC50 (pM), PBMC IFN gamma assay, + 300 nM BP was determined as 611 pM; the Ratio (HEK-blue EC50, + 100 nM BP against - BP) was 520 and 360 and 338.

As for hDR-18-monoFc (Fc fusion), in assay [7], the Activity, +100 nM BP, DF-1000002 came out at 2.01; the Activity, +100 nM BP, DF-5000003 was 1.95; the Activity, +100 nM BP, DF-25000004 came to 1.59; the Ratio (-BP/+BP), DF-1000005 turned out to be 0.99. For the same substance, in assay [7], the Ratio (-BP/+BP), DF-5000006 was found to be 0.98 and the Ratio (-BP/+BP), DF-25000007 was 0.93. For the same substance, in assay [1], the Activity, No BP, DF-100000 was determined as 2; the Activity, No BP, DF-500000 was 1.91; the Activity, No BP, DF-2500000 turned out to be 1.49; the HEK-Blue activity, No BP, DF-10000 came to 2.19. In assay [1], the HEK-Blue activity, No BP, DF-100,000 was 2.26 and the HEK-Blue activity, No BP, DF-1,000,000 was found to be 2.16. Moreover, in assay [2], the HEK-Blue activity, +100 nM BP, DF-10000 was found to be 2.21; the HEK-Blue activity, +100 nM BP, DF-100,000 was found to be 2.19; the HEK-Blue activity, +100 nM BP, DF-1,000,000 is 2.1; the Ratio (-BP/+BP), DF-10000 was determined as 0.99. Moreover, in assay [2], the Ratio (-BP/+BP), DF-100,000 was determined as 1.03 and the Ratio (-BP/+BP), DF-1,000,000 turned out to be 1.03.

The substance “hIL18(G3P, E6K, D54Y, S55P, T63S, N91S, R104Q)-monoFc (Fc fusion)” showed an EC50 (pM), PBMC IFN gamma assay in assay [6] of 19.5 pM. Also, the EC50 (pM), PBMC IFN gamma assay, + 300 nM BP in assay [3] came out at 74.5 pM.

In assay [6], “hIL18(G3P, E6K, D54Y, S55P, T63S, N91S, R104Q, Q154R)-monoFc (Fc fusion)” showed an EC50 (pM), PBMC IFN gamma assay of 85.6 pM. Further, in assay [3], the EC50 (pM), PBMC IFN gamma assay, + 300 nM BP amounted to 64.1 pM.

“wt-monoFc (from UniProt Q14116 37-193; P01857 119-327) (Fc fusion)”: in assay [7], the Activity, +100 nM BP, DF-1000002 worked out at 0.11; the Activity, +100 nM BP, DF-5000003 was 0.08; the Activity, +100 nM BP, DF-25000004 was 0.07; the Ratio (-BP/+BP), DF-1000005 was found to be 17.4. In assay [7], the Ratio (-BP/+BP), DF-5000006 was determined as 17.4 and the Ratio (-BP/+BP), DF-25000007 is 10.5. In addition, in assay [1], the Activity, No BP, DF-100000 was 1.94; the Activity, No BP, DF-500000 came out at 1.43; the Activity, No BP, DF-2500000 turned out to be 0.77.

Values taken from patent US20240182536A1.
